Among the data in patent US11661611 are activity values, retold here.

Test in all cases: cell_activity
Data set [1] has as its system ZFN 59440 (synthetic construct). To be noted: indels with partner 59441, 6 ug mRNA, activated T cells; 82 at 2 ug, 59 at 0.5 ug; F6 printed ATCCLAH in Table 1, ATCGLAH in claim.
For data set [2], the system named is ZFN 59441 (synthetic construct). To be noted: indels with partner 59440, 6 ug mRNA, activated T cells; 82 at 2 ug, 59 at 0.5 ug.
For data set [3], the system named is ZFN 59558 (synthetic construct). To be noted: indels with partner 59557, 6 ug mRNA, activated T cells; 80 at 2 ug, 55 at 0.5 ug.
Data set [4] deals with ZFN 59581 (synthetic construct). To be noted: indels with partner 59580, 6 ug mRNA, activated T cells; 83 at 2 ug, 72 at 0.5 ug.
The subject of data set [5] is ZFN 59489 (synthetic construct). To be noted: indels with partner 59488, 6 ug mRNA, activated T cells; 84 at 2 ug, 60 at 0.5 ug.
Data set [6] has as its system ZFN 59580 (synthetic construct). To be noted: indels with partner 59581, 6 ug mRNA, activated T cells; 83 at 2 ug, 72 at 0.5 ug.
Data set [7] deals with ZFN 59488 (synthetic construct). To be noted: indels with partner 59489, 6 ug mRNA, activated T cells; 84 at 2 ug, 60 at 0.5 ug.
Data set [8] deals with ZFN 59557 (synthetic construct). To be noted: indels with partner 59558, 6 ug mRNA, activated T cells; 80 at 2 ug, 55 at 0.5 ug.

In turn, “CCAGCAAAGGACGAGGTCTAGAAGGCAG (double strand) [CISH exon 2 site 59440]” showed an activity in data set [1] of 84%.

On to “GTGGAGCGGACTGGGCAGCGGCCCCTGT (double strand) [CISH exon 2 site 59441]”, for which the activity in data set [2] is 84%.

In the case of “GATGCGTGGCCTGGACAAGCAGTTGGAG (double strand) [CISH exon 3 site 59558]”, in data set [3], the activity was determined as 84%. In data set [4], “ATAGTGCTGCACAAGGCTGACCACATCC (double strand) [CISH exon 3 site 59581]” showed an activity of 82%. Sequence “GAGGAGGTGGCAGAGGGTACCCCAGCCC (double strand) [CISH exon 2 site 59489]” came in with an activity in data set [5] of 89%.

Take “CCGGAAAGGCCAGGATGCGTGGCCTGGA (double strand) [CISH exon 3 site 59580]”: in data set [6], the activity stood at 82%.

In the case of “GGAAGGCCCCAGCAGGCAAGGGCTGCAT (double strand) [CISH exon 2 site 59488]”, in data set [7], the activity was found to be 89%.

As to “GAGTCCAGACGGAAGCTGGAGTCGGCAT (double strand) [CISH exon 3 site 59557]”, the activity in data set [8] was found to be 84%.
